Assay results taken from patent US7582478B2, “Cleaved serum response factor in cardiac diagnosis and therapy” (Baylor College of Medicine, priority 2003, dated 2009).
Entries after “also recorded” stand apart in the source; their conditions may differ. Where a SMILES comes first, the peptide text is derived from it. The star is where a group is joined. Cbz = O=C(OCc1ccccc1)*; CH2F = FC*

T1: active recombinant human caspase 3 (Homo sapiens, UniProt P42574)
T1 construct: incubated with active recombinant human caspase 3; purchased BD PharMingen
T1 sequence (P42574 29-175 limits assumed): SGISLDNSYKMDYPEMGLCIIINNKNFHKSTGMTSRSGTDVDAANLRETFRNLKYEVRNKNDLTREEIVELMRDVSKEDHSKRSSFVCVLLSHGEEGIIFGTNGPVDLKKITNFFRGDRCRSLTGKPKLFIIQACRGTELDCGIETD
T1 sequence (P42574 176-277 limits assumed): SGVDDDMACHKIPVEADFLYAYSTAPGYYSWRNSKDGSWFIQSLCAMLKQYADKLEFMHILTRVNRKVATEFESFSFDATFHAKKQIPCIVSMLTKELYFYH

B1: SRF-N: N-terminal SRF (residues 1-254), 32 kDa caspase 3 cleavage fragment (protein)
chain: MLPTQAGAAAALGRGSALGGSLNRTPTGRPGGGGGTRGANGGRVPGNGAGLGPGRLEREAAAAAATTPAPTAGALYSGSEGDSESGEEEELGAERRGLKRSLSEMEIGMVVGGPEASAAATGGYGPVSGAVSGAKPGKKTRGRVKIKMEFIDNKLRRYTTFSKRKTGIMKKAYELSTLTGTQVLLLVASETGHVYTFATRKLQPMITSETGKALIQTCLNSPDSPPRSDPTTDQRMSATGFEETDLTYQVSESD
B2: SRF-C: C-terminal SRF (residues 255-508), 32 kDa fragment (protein)
chain: SSGETKDTLKPAFTVTNLPGTTSTIQTAPSTSTTMQVSSGPSFPITNYLAPVSASVSPSAVSSANGTVLKSTGSGPVSSGGLMQLPTSFTLMPGGAVAQQVPVQAIQVHQAPQQASPSRDSSTDLTQTSSSGTVTLPATIMTSSVPTTVGGHMMYPSPHAVMYAPTSGLGDGSLTVLNAFSQAPSTMQVSHSQVQEPGGVPQVFLTASSGTVQIPVSAVQLHQMAVIGQQAGSSSNLTELQVVNLDTAHSTKSE

Key:
[1] = target: T1, active recombinant human caspase 3; experiment: In vitro cleavage of recombinant SRF by active caspase 3, Western blot; assay type: biochemical; conditions: 20 μM Z-VAD-fmk, recombinant full length SRF
Description: Recombinant purified full length SRF was incubated with active recombinant human caspase 3 (BD PharMingen) in the presence or absence of 20 μM of Z-VAD-fmk (BD PharMingen), a caspase 3 inhibitor, in a reaction buffer (50 mM HEPES (pH 7.4), 100 mM NaCl, 1 mM EDTA, 0.1% CHAPS, 10 mM DTT and 10% glycerol). Reactions were analyzed by Western blot as described above.
To examine caspase 3 cleavage of SRF, we incubated activated caspase 3 with recombinant SRF in vitro. […] Caspase 3 cleaved SRF in a time-dependent manner, and this cleavage was inhibited by the caspase inhibitor, Z-VAD. […] In this case, the 55 kDa fragment tended to fall as a function of caspase 3 doses while there was a coincident increase into a 32 kDa fragment.

neonatal cardiomyocytes = experiment: Immunofluorescence analysis of cellular localization in transfected cardiomyocytes; assay type: cell-based, rat; conditions: transfected cardiac myocytes, anti-HA antibody
From the text: Visualization of transfected SRF and SRF-N cellular localization was implemented in neonatal cardiomyocytes attached to coverslips as described previously (Wei et al., 2001). Anti-HA antibody was used at 1:200.

cardiac α-actin promoter = experiment: Cardiac α-actin promoter luciferase reporter (αCA-luc) co-transfection; assay type: cell-based, rat; conditions: for effect on cardiac α-actin promoter activity (in words): neonatal rat cardiomyocytes
From the text: (§1) The construction and use of reporter plasmids containing the skeletal (SK-luc) and cardiac α-actin (aCA-luc) promoters linked to luciferase reporters were as previously described (MacLellan et al., 1994; Wei et al., 1998). The vector pCGN, a cytomegalovirus promoter-driven expression vector, was used to express full length SRF (residues 1-508) (pCGN-SRF), N-terminal SRF (residues 1-254) (pCGN-SRF-N), C-terminal SRF (residues 255-508) (pCGN-SRF-C) and SRFpm1 (pCGN-SRFpm1) containing triple point mutants within the MADS box (Prywes and Zhu, 1992).
(§2) C2C12 myoblasts and neonatal rat cardiomyocytes were cultured as previously described (MacLellan et al., 1994; Wei et al., 1998). Cells plated in 30-mm plates were transfected with […] of total plasmid DNA containing the reporter plasmid (SK-luc or aCA-luc) and the indicated expression plasmids. Transfections were performed using LipofectAMINE (Invitrogen) according to the manufacturer's instructions. Cells were harvested 40 h post-transfection and luciferase activity was measured as previously described (MacLellan et al., 1994).
(§3) To evaluate potential functional significance of the cleaved fragments, we overexpressed the SRF-N and SRF-C fragments via CMV promoter-driven expression plasmids co-transfected with cardiac α-actin and skeletal α-actin promoter reporter plasmids in cultured rat neonatal cardiomyocytes and C2C12 myoblasts. […] This inhibitory effect was very similar to that observed by a SRF negative mutant SRFpml (Wei et al., 1998; Prywes and Zhu, 1992; Johansen and Prywes, 1993).

[2] = test system: skeletal α-actin promoter; experiment: Skeletal α-actin promoter luciferase reporter (SK-luc) co-transfection in C2C12 myoblasts; assay type: cell-based
From the text: as §1, §2, §3

[3] = test system: skeletal α-actin SRE1 DNA probe; experiment: Electrophoretic gel mobility shift assay (EMSA); assay type: binding; conditions: recombinant protein
Description: DNA binding activity of SRF-N was assayed by EMSA with recombinant SRF-N and full length SRF and with the oligonucleotide probe corresponding to the proximal SRE1 of the skeletal a-actin promoter as previously described (MacLellan et al., 1994; Wei et al., 1998). Recombinant SRF and SRF-N were generated using pET-15b (Novagen) vector, which contains 6′histidine tag. These recombinant SRFs were expressed in BL21 (Stratagene) competent cells followed by Ni-NTA (nickel-nitrilotriacetic acid) resin purification.

Molecule	cleavage of SRF by caspase 3 [1]	nuclear localization (neonatal cardiomyocytes)	decrease of basal transcriptional activity of the cardiac α-actin promoter (cardiac α-actin promoter; cultured rat neonatal cardiomyocytes, CMV promoter-driven expression plasmid, 40 h post-transfection) [%]	effect on cardiac α-actin promoter activity (in words) (cardiac α-actin promoter)	inhibition of the transcriptional activity of α-actin gene promoters (cardiac α-actin promoter; summary for myogenic cells (cardiomyocytes and C2C12 myoblasts together))	effect on skeletal α-actin promoter activity (in words) [2]	decrease of basal transcriptional activity of the skeletal α-actin promoter ([2]; CMV promoter-driven expression plasmid, 40 h post-transfection) [%]	binding to skeletal α-actin SRE1 DNA probe [3]
COC(=O)C[C@H](NC(=O)[C@H](C)NC(=O)[C@@H](NC(=O)OCc1ccccc1)C(C)C)C(=O)CF [Z-VAD, Z-VAD-fmk] (Cbz-Val-Ala-Asp(OMe)-CH2F)	blocked; also recorded: inhibited	–	–	–	–	–	–	–
B1	–	localize to myogenic nuclei	60	repressed	50-60%	repressed	50	retains DNA binding activity; also recorded: bound
B2	–	–	–	did not inhibit	–	did not inhibit	–	–
